Here are results for five molecules from US20210324069A1 (PROGASTRINE ET CANCERS S R L, published 2021).

To fix the notation:
T1: human progastrin (human)
T1 construct: 80-residue progastrin; also called hPG; PG
T1 chain: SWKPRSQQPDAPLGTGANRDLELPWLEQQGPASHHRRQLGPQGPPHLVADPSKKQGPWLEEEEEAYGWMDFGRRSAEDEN

B1: mAb13 (antibody, V domains shown)
VH: EVQLVESGGGLVQPGGSLKLSCAASGFIFSSYGMSWVRQSPDRRLELVASINTFGDRTYYPDSVKGRFTISRDNAKNTLYLQMTSLKSEDTAIYYCARGTGTYWGQGTTLTVSS
VL: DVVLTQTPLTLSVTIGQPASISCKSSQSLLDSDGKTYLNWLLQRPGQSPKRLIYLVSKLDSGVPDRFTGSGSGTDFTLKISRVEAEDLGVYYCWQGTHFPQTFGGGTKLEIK
notes: Murine monoclonal antibody from a hybridoma; also called hybridoma 2C6C3C7
B2: mAb16 (antibody, V domains shown)
VH: QVQLQQSGAELVKPGASVKLSCKASGYTFTSYYMYWVKQRPGQGLEWIGEINPSNGGTNFNEKFKSKATLTVDKSSSTAYMQLSSLTSEDSAVYYCTRGGYYPFDYWGQGTTLTVSS
VL: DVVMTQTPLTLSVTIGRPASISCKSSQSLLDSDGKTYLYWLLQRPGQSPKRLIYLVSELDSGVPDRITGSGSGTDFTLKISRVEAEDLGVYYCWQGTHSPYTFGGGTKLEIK
notes: Murine monoclonal antibody from a hybridoma; also called hybridoma 1E9D9B6
B3: mAb3 (antibody, V domains shown)
VH: EVQLQQSGTVLARPGASVKMSCKASGYIFTSYWVHWVKQRPGQGLEWIGGFYPGNSDSRYNQKFKGKATLTAVTSASTAYMDLSSLTNEDSAVYFCTRRDSPQYWGQGTTLTVSS
VL: DVLMTQTPLSLPVSLGDQASISCRSSQSIVHSNGNTYLEWYLQKPGQSPKLLIYKVSNRFSGVPDRFSGSGSGTDFTLKISRLEAEDLGVYYCFQGSHVPFTFGGGTKLEIK
notes: Murine monoclonal antibody from a hybridoma; also called hybridoma 6B5B11C10
B4: mAb4 (antibody, V domains shown)
VH: QVQLQQSGAELMKPGASVKISCKATGYTFSSSWIEWLKQRPGHGLEWIGEFLPGSGSTDYNEKFKGKATFTADTSSDTAYMLLSSLTSEDSAVYYCATDGNYDWFAYWGQGTLVTVSA
VL: DLVMTQTPLSLPVSLGDQASISCRSSQSLVHSSGVTYLHWYLQKPGQSPKLLIYKVSNRFSGVPDRFSGSGSGTDFTLKISRVEAEDLGVYFCSQSTHVPPTFGSGTKLEIK
notes: Murine monoclonal antibody from a hybridoma; also called hybridoma 20D2C3G2
B5: mAb19 (antibody, V domains shown)
VH: DVQLQESGPGLVKPSQSLSLTCTVTGYSITSDYAWNWIRQFPGNKLEWMGYISFSGYTSYNPSLKSRISVTRDTSRNQFFLQLTSVTTEDTATYYCAREVNYGDSYHFDYWGQGTIVTVSS
VL: QLALTQSSSASFSLGASAKLTCTLSSQHRTYTIEWYQQQSLKPPKYVMEVKKDGSHSTGHGIPDRFSGSSSGADRYLSISNIQPEDEAIYICGVGDAIKGQSVFVFGGGTKVTVL
notes: Murine monoclonal antibody from a hybridoma; also called hybridoma 1B3B4F11

For the assay, the target named is T1, human progastrin. In words: epitope mapping (no details given).
Consider B1, for which the binding result is listed as “binds”.

Regarding B2, the binding result is on record as “binds”.

In the case of B3, the binding result is given as “binds”.

Regarding B4, the binding result is recorded as “binds”.

As for B5, the binding result is on record as “binds”.
